Assay results as given in patent CN109836488A, “一种治疗代谢疾病的胰高血糖素类似物” (Zhejiang Doer Biologics Co Ltd, priority 2017, dated 2019).

Experiments:
[1] = cited from earlier work
GIPR = target: T1, GIPR (Homo sapiens, UniProt P48546); conditions: cited from earlier work
T1 sequence (P48546 22-466): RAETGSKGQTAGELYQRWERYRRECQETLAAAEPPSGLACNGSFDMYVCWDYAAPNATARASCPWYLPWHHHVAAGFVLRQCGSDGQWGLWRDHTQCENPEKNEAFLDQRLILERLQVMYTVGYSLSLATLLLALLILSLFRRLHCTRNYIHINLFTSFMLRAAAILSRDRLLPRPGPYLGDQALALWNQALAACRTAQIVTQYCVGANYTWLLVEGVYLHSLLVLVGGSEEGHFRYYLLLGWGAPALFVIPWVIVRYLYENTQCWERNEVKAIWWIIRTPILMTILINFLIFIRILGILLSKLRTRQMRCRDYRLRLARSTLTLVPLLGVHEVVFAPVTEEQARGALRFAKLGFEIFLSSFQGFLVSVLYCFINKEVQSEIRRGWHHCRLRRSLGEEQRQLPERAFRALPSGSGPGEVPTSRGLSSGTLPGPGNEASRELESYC

[2] = Immunogenicity test, antibody titre by direct ELISA, Example 6; format: in vivo, mouse (Balb/c); conditions: 30 nmol/kg daily for 28 days, serum on day 45
[3] = human, in vivo; cited from earlier work

Which Half-life in vivo [1] does the source give for GLP-1 [天然GLP-1] here?
Its Half-life in vivo is ~2 分钟.

With Glucagon [C001] as the substance, how does the GIPR agonist activity (GIPR) read?
The GIPR agonist activity was “没有GIPR激动活性”.

What about the Immunogenicity in vivo [2] of the same substance?
Its Immunogenicity in vivo is “极低”.

With Taspoglutide as the substance, how does the Antibody formation rate [3] read?
The Antibody formation rate was 49 %.
